Source: patent publication US5578310A, “Topical bioadhesive ointment compositions and their use in wound healing” (Berlex Laboratories Inc., priority 1994, dated 1996)

Test: In vivo uptake and tissue distribution of 125I-TGFα from TJ-TGFα formulation on wounded cheek pouch
Parameters: species or system Golden Syrian hamsters
Details: for Distribution of 125I-TGFα in the Tissues: Skin: 25 cm^2 skin on back; for Distribution of 125I-TGFα in the Tissues: Blood / Distribution of 125I-TGFα in the Tissues: Cecum / Distribution of 125I-TGFα in the Tissues: Colon / Distribution of 125I-TGFα in the Tissues: Esophagus / Distribution of 125I-TGFα in the Tissues: Kidney / Distribution of 125I-TGFα in the Tissues: Liver / Distribution of 125I-TGFα in the Tissues: Small Intestine / Distribution of 125I-TGFα in the Tissues: Stomach / Distribution of 125I-TGFα in the Tissues: Submaxillary Gland / Distribution of 125I-TGFα in the Tissues: Thyroid / Distribution of 125I-TGFα in the Tissues: Tongue: cheek pouch wound; for Distribution of 125I-TGFα in the Tissues: Cheek Pouch: right-hand side cheek pouch (application site)
From the text: The TGFα-containing ointment composition of Example 2 (TJ-TGFα formulation) was subjected, both in vitro and in vivo, to evaluation to meet the therapeutical requirements for oral mucositis. The in vitro evaluation included TGFα release and extraction from the composition, autoclave sterilizability and the bioactivity and stability of TGFα in the composition. The in vivo evaluation included TGFα uptake and tissue distribution of absorbed TGFα from hamster's cheek pouch.
B. The in vivo uptake of TGFα from the TJ-TGFα formulation was determined in Golden Syrian hamsters, female, approximately 150 g using an ^125 I-TGFα formulation (specific activity-45 μci/μg), the hamster's cheek pouch having a mechanically created wound. A pharmacokinetic study of tissue distribution of TGFα absorbed by the hamsters was also conducted. The methods employed were as follows:
1. Fast hamsters overnight.
2. Anesthetize hamsters by I.M. injection of ketamine HCl.
3. Create a 2 mm diameter wound on the right-hand side of hamster's cheek pouch by a biopsy punch.
4. Following the removal of the debridement and blood clot, administer 20 μl TJ-TGFα formulation containing 26 μci 125I-TGFα onto the wound area by a Gilson Microman.
5. Keep the hamsters in their cages and give no water or food during the course of 6 hours study.
6. Select three hamsters at time 15 minutes, 30 minutes, 1 hour, 2 hours, 4 hours and 6 hours and select one hamster at 24 hours for TGFα uptake and tissue distribution study.
7. Punch a needle into the hamster's heart and withdrawn 1 ml blood by a 5 ml syringe.
8. Sacrifice hamster by inhalation of an overdose of carbon dioxide vapor from dry ice in a closed chamber.
9. Immediately after sacrificing, remove the liver, kidney, thyroid, submaxillary gland, esophagus, stomach, small intestine, cecum, colon, 25 cm^2 skin on back, tongue and right-hand side of cheek pouch.
11. Count the CPM of ^125 I-TGFα that distributed in the hamster's tissue and GI contents.

^125 I-TGFα: 125I-labelled TGFα (specific activity 45 μci/μg) administered in TJ-TGFα formulation onto the hamster cheek pouch wound
Distribution of 125I-TGFα in the Tissues: Skin (15 min.): 0.04%
Distribution of 125I-TGFα in the Tissues: Blood (15 min.): 0.01%
Distribution of 125I-TGFα in the Tissues: Cecum (15 min.): 0.303%
Distribution of 125I-TGFα in the Tissues: Colon (15 min.): 0.01%
Distribution of 125I-TGFα in the Tissues: Esophagus (15 min.): 0.001%
Distribution of 125I-TGFα in the Tissues: Kidney (15 min.): 0.02%
Distribution of 125I-TGFα in the Tissues: Liver (15 min.): 0.03%
Distribution of 125I-TGFα in the Tissues: Small Intestine (15 min.): 0.01%
Distribution of 125I-TGFα in the Tissues: Stomach (15 min.): 0.01%
Distribution of 125I-TGFα in the Tissues: Submaxillary Gland (15 min.): 0.02%
Distribution of 125I-TGFα in the Tissues: Thyroid (15 min.): 0.005%
Distribution of 125I-TGFα in the Tissues: Tongue (15 min.): 0.85%
Distribution of 125I-TGFα in the Tissues: Cheek Pouch (15 min.): 76%
Distribution of 125I-TGFα in the Tissues: Skin (0.5 hrs.): 0.06%
Distribution of 125I-TGFα in the Tissues: Blood (0.5 hrs.): 0.02%
Distribution of 125I-TGFα in the Tissues: Cecum (0.5 hrs.): 0.01%
Distribution of 125I-TGFα in the Tissues: Colon (0.5 hrs.): 0.02%
Distribution of 125I-TGFα in the Tissues: Esophagus (0.5 hrs.): 0.01%
Distribution of 125I-TGFα in the Tissues: Kidney (0.5 hrs.): 0.07%
Distribution of 125I-TGFα in the Tissues: Liver (0.5 hrs.): 0.07%
Distribution of 125I-TGFα in the Tissues: Small Intestine (0.5 hrs.): 0.05%
Distribution of 125I-TGFα in the Tissues: Stomach (0.5 hrs.): 0.03%
Distribution of 125I-TGFα in the Tissues: Submaxillary Gland (0.5 hrs.): 0.05%
Distribution of 125I-TGFα in the Tissues: Thyroid (0.5 hrs.): 0.02%
Distribution of 125I-TGFα in the Tissues: Tongue (0.5 hrs.): 3.13%
Distribution of 125I-TGFα in the Tissues: Cheek Pouch (0.5 hrs.): 30%
Distribution of 125I-TGFα in the Tissues: Skin (1 hr.): 0.03%
Distribution of 125I-TGFα in the Tissues: Blood (1 hr.): 0.04%
Distribution of 125I-TGFα in the Tissues: Cecum (1 hr.): 0.02%
Distribution of 125I-TGFα in the Tissues: Colon (1 hr.): 0.04%
Distribution of 125I-TGFα in the Tissues: Esophagus (1 hr.): 0.01%
Distribution of 125I-TGFα in the Tissues: Kidney (1 hr.): 0.07%
Distribution of 125I-TGFα in the Tissues: Liver (1 hr.): 0.09%
Distribution of 125I-TGFα in the Tissues: Small Intestine (1 hr.): 0.04%
Distribution of 125I-TGFα in the Tissues: Stomach (1 hr.): 0.05%
Distribution of 125I-TGFα in the Tissues: Submaxillary Gland (1 hr.): 0.04%
Distribution of 125I-TGFα in the Tissues: Thyroid (1 hr.): 0.02%
Distribution of 125I-TGFα in the Tissues: Tongue (1 hr.): 4.82%
Distribution of 125I-TGFα in the Tissues: Cheek Pouch (1 hr.): 70%
Distribution of 125I-TGFα in the Tissues: Skin (2 hrs.): 0.10%
Distribution of 125I-TGFα in the Tissues: Blood (2 hrs.): 0.05%
Distribution of 125I-TGFα in the Tissues: Cecum (2 hrs.): 0.06%
Distribution of 125I-TGFα in the Tissues: Colon (2 hrs.): 0.06%
Distribution of 125I-TGFα in the Tissues: Esophagus (2 hrs.): 0.01%
Distribution of 125I-TGFα in the Tissues: Kidney (2 hrs.): 0.14%
Distribution of 125I-TGFα in the Tissues: Liver (2 hrs.): 0.17%
Distribution of 125I-TGFα in the Tissues: Small Intestine (2 hrs.): 0.07%
Distribution of 125I-TGFα in the Tissues: Stomach (2 hrs.): 0.10%
Distribution of 125I-TGFα in the Tissues: Submaxillary Gland (2 hrs.): 0.20%
Distribution of 125I-TGFα in the Tissues: Thyroid (2 hrs.): 0.14%
Distribution of 125I-TGFα in the Tissues: Tongue (2 hrs.): 3.57%
Distribution of 125I-TGFα in the Tissues: Cheek Pouch (2 hrs.): 74%
Distribution of 125I-TGFα in the Tissues: Skin (4 hrs.): 0.14%
Distribution of 125I-TGFα in the Tissues: Blood (4 hrs.): 0.13%
Distribution of 125I-TGFα in the Tissues: Cecum (4 hrs.): 0.04%
Distribution of 125I-TGFα in the Tissues: Colon (4 hrs.): 0.13%
Distribution of 125I-TGFα in the Tissues: Esophagus (4 hrs.): 0.26%
Distribution of 125I-TGFα in the Tissues: Kidney (4 hrs.): 0.23%
Distribution of 125I-TGFα in the Tissues: Liver (4 hrs.): 0.26%
